Source: patent publication US20040037843A1
Read-outs that look alike come from different tables or passages of the source.

Tests used:
HLA-A*0203 (human) [1] = conditions: remark: other sources report otherwise
HLA-A*0201 (human) [2] = test: competition with 125I-labelled standard peptide for purified HLA; conditions: remark: other sources report otherwise
HLA-A*0301 (human) = conditions: remark: other sources report otherwise
HLA-A*0206 (human) [3] = test: competition with 125I-labeled probe peptide for purified HLA, gel filtration; conditions: remark: other sources report otherwise
HLA-A*0201 (human) [4] = test: as above; conditions: remark: other sources report otherwise
HLA-A*6802 (human) [5] = test: as above; conditions: remark: other sources report otherwise
HLA-A*0203 (human) [6] = test: inhibition of 125I probe peptide binding to purified HLA, gel filtration; conditions: remark: other sources report otherwise
HLA-A*0202 (human) [7] = test: competition with 125I-labeled probe peptide for purified HLA, gel filtration; conditions: remark: other sources report otherwise
HLA-A*0201 (human) [8] = test: inhibition of 125I probe peptide binding to purified HLA, gel filtration; conditions: remark: other sources report otherwise
HLA-A*6802 (human) [9] = test: as above; conditions: remark: other sources report otherwise
HLA-A*0201 (human) [10] = conditions: remark: other sources report otherwise
HLA-A*0206 (human) [11] = test: inhibition of 125I probe peptide binding to purified HLA, gel filtration; conditions: remark: other sources report otherwise
HLA-A*0202 (human) [12] = test: as above; conditions: remark: other sources report otherwise
HLA-A*0201 (human) [13] = conditions: remark: other sources report otherwise; remark: listed apart in the source
HLA-A*0203 (human) [14] = conditions: remark: other sources report otherwise; remark: listed apart in the source
HLA-A*0206 (human) [15] = conditions: remark: other sources report otherwise
HLA-A*0201 (human) [16] = conditions: remark: other sources report otherwise; remark: listed apart in the source
HLA-A*0203 (human) [17] = conditions: remark: other sources report otherwise; remark: listed apart in the source
HLA-A*6802 (human) [18] = conditions: remark: other sources report otherwise
HLA-A*0202 (human) [19] = conditions: remark: other sources report otherwise
HLA-A*0202 (human) [20] = conditions: remark: other sources report otherwise; remark: listed apart in the source
HLA-A*2401 (human) = conditions: scale: ratio
HLA-A*0203 (human) [21] = conditions: remark: other sources report otherwise; remark: listed apart in the source
HLA-A*0206 (human) [22] = test: competition with 125I-labelled probe peptide on purified HLA; conditions: remark: other sources report otherwise
HLA-A*0201 (human) [23] = test: as above; conditions: remark: other sources report otherwise
HLA-A*0203 (human) [24] = test: as above; conditions: remark: other sources report otherwise
HLA-A*0202 (human) [25] = test: as above; conditions: remark: other sources report otherwise
HLA-A*0202 (human) [26] = test: competition with 125I-labelled standard peptide for purified HLA; conditions: remark: other sources report otherwise
HLA-A*1101 (human) [27] = conditions: remark: other sources report otherwise
HLA-A*1101 (human) [28] = conditions: remark: other sources report otherwise; remark: listed apart in the source
HLA-A*0206 (human) [29] = test: competition with 125I-labelled standard peptide for purified HLA; conditions: remark: other sources report otherwise
HLA-A*0203 (human) [30] = test: as above; conditions: remark: other sources report otherwise
HLA-A*0206 (human) [31] = test: competition with 125I probe peptide on purified HLA, gel filtration; conditions: remark: other sources report otherwise
HLA-A*0201 (human) [32] = test: as above; conditions: remark: other sources report otherwise
HLA-A*0202 (human) [33] = test: as above; conditions: remark: other sources report otherwise
HLA-A*0201 (human) [34] = conditions: remark: other sources report otherwise; remark: listed apart in the source
HLA-A*6802 (human) [35] = test: competition with 125I probe peptide on purified HLA, gel filtration; conditions: remark: other sources report otherwise
HLA-A*0203 (human) [36] = test: as above; conditions: remark: other sources report otherwise
HLA-A*0101 (human) = conditions: remark: other sources report otherwise

In the case of FLRPRSLQCV [Peptide 1419.07, HuK2.165], the IC50 (HLA-A*0203 (human) [1]) is reported as 4 nM.

Binder DLMLLRLSEPV [peptide 1419.13, PSA.116.V11 / HuK2.120.V11] has an IC50 (HLA-A*0201 (human) [2]) of 50 nM.

Work on RAVCGGVLVH [PSA peptide, position 43, 10 amino acids] yielded a relative binding ratio (IC50 of standard peptide / IC50 of test peptide) (HLA-A*0301 (human)) of 0.011.

GTPEGDLVYV [Peptide 1418.29] was tested, and the IC50 (HLA-A*0206 (human) [3]) was 40 nM, the IC50 (HLA-A*0201 (human) [4]) was 313 nM and the IC50 (HLA-A*6802 (human) [5]) was 571 nM.

For MLLRLSEPAEV [Peptide 1389.12 (PSA.118.V11)], the IC50 (HLA-A*0203 (human) [6]) was 115 nM.

VLAGGFFLL [Peptide 1126.10] gave an IC50 (HLA-A*0202 (human) [7]) of 0.2 nM.

LMLLRLSEPA [Peptide 63.0014 (PSA.117)] gave an IC50 (HLA-A*0201 (human) [8]) of 200 nM and an IC50 (HLA-A*6802 (human) [9]) of 5000 nM.

In the case of DLMLLRLSEPV [Peptide 1419.13, HuK2.120.V11], the IC50 (HLA-A*0201 (human) [10]) is reported as 50 nM.

With TLSVTWIGV [Peptide 60.0217 (PSA.5.V9)] the IC50 (HLA-A*0206 (human) [11]) was 712 nM, the IC50 (HLA-A*0203 (human) [6]) was 40 nM and the IC50 (HLA-A*6802 (human) [9]) was 229 nM. The IC50 (HLA-A*0202 (human) [12]) was 4.9 nM.

For STCSGDSGGPL [PSA peptide, position 203, 11 amino acids], the relative binding ratio (HLA-A*0201 (human) [13]) was 0.0005 and the relative binding ratio (HLA-A*0203 (human) [14]) was 0.0092.

Binder LLSNDMCARV [peptide 1418.53, HuK2.178.V10] has an IC50 (HLA-A*0206 (human) [15]) of 10 nM, an IC50 (HLA-A*0201 (human) [16]) of 5.3 nM and an IC50 (HLA-A*0203 (human) [17]) of 4.3 nM. It also gave an IC50 (HLA-A*6802 (human) [18]) of 1700 nM and an IC50 (HLA-A*0202 (human) [19]) of 0.7 nM.

With LLFFWLDRSV [peptide 1097.09, PAP.21] the IC50 (HLA-A*0202 (human) [20]) was 0.6 nM.

Binder GLPEGDLVYV [Peptide 1389.22] has an IC50 (HLA-A*0206 (human) [3]) of 112 nM and an IC50 (HLA-A*6802 (human) [5]) of 964 nM.

Binder ALFDIESKV [Peptide 1129.08] has an IC50 (HLA-A*0202 (human) [7]) of 0.7 nM.

With VFRHGDRSPI [PAP (Prostatic Acid Phosphatase) peptide, position 41, 10 amino acids] the relative binding ratio (A*2401) (HLA-A*2401 (human)) was 0.0005.

GLHGQDLFGV [peptide 1419.62, PAP.196.V10] showed an IC50 (HLA-A*0203 (human) [21]) of 3.2 nM.

For WVLTAAHCL [Kallikrein 59, 9 amino acids], the relative binding ratio (HLA-A*0206 (human) [22]) was 0.016, the relative binding ratio (HLA-A*0201 (human) [23]) was 0.0003 and the relative binding ratio (HLA-A*0203 (human) [24]) was 0.0001. For the same binder, the relative binding ratio (HLA-A*0202 (human) [25]) was 0.0018.

KVTEFMLCV [peptide 1418.21, HuK2.191.V9] was tested, and the IC50 (HLA-A*6802 (human) [18]) was 6670 nM.

In the case of VLAGGFFLL [peptide 1126.10, PSM.27], the IC50 (HLA-A*0202 (human) [26]) is reported as 0.2 nM.

Work on RAVCGGVLVH [PSA 43, 10 amino acids] yielded a relative binding ratio (IC50 of standard peptide / IC50 of test peptide) (HLA-A*1101 (human) [27]) of 0.031.

GLHGQDLFGI [peptide 1166.11, PAP.196] was tested, and the IC50 (HLA-A*0202 (human) [20]) was 0.9 nM.

Work on VTKFMLCAGR [PSA position 188, 10 amino acids] yielded a relative binding ratio (IC50 of standard peptide / IC50 of test peptide) (HLA-A*1101 (human) [28]) of 0.012.

RMMNDQLMFL [peptide 1126.06, PSM.662] showed an IC50 (HLA-A*0206 (human) [29]) of 40 nM.

KLQCVDLHVV [peptide 1419.24, PSA.166.V10] showed an IC50 (HLA-A*0203 (human) [30]) of 9.5 nM.

ALFPPEGVSV [peptide 1419.61, PAP.122.V10] gave an IC50 (HLA-A*0202 (human) [20]) of 1 nM.

Work on SLHLLSNDMCA [Peptide 1419.14, HuK2.175] yielded an IC50 (HLA-A*0201 (human) [10]) of 72 nM and an IC50 (HLA-A*0203 (human) [1]) of 73 nM.

With ALFDIESKV [peptide 1129.08, PSM.711] the IC50 (HLA-A*0202 (human) [26]) was 0.7 nM.

With PLLLWQPIPV [Peptide 63.0042 … (PAP.134.L2)] the IC50 (HLA-A*0206 (human) [31]) was 336 nM, the IC50 (HLA-A*0201 (human) [32]) was 238 nM and the IC50 (HLA-A*0202 (human) [33]) was 47 nM.

Binder SLSLGFLFLL [peptide 1419.51, PAP.13] has an IC50 (HLA-A*0201 (human) [34]) of 40 nM.

In the case of RMMNDQLMFL [Peptide 1126.06], the IC50 (HLA-A*0206 (human) [3]) is reported as 40 nM.

For KLRELSELSV [Peptide 63.0048 … (PAP.234.V10)], the IC50 (HLA-A*0201 (human) [32]) was 263 nM and the IC50 (HLA-A*6802 (human) [35]) was 1820 nM.

Binder GVSIWNPILV [Peptide 63.0041 … (PAP.128.V10)] has an IC50 (HLA-A*0206 (human) [31]) of 451 nM, an IC50 (HLA-A*0201 (human) [32]) of 250 nM and an IC50 (HLA-A*6802 (human) [35]) of 2290 nM. For the same binder, the IC50 (HLA-A*0202 (human) [33]) was 94 nM.

QLMFLERAFI [Peptide 1126.16] was tested, and the IC50 (HLA-A*6802 (human) [5]) was 30 nM.

Work on FMLCAGLWV [peptide 1418.22, HuK2.195.V9] yielded an IC50 (HLA-A*0206 (human) [15]) of 51 nM.

Work on HLLSNDMCV [peptide 1418.20, HuK2.177.V9] yielded an IC50 (HLA-A*0203 (human) [17]) of 278 nM and an IC50 (HLA-A*0202 (human) [19]) of 102 nM.

WVLTAAHCI [PSA 55, 9 amino acids] showed a relative binding ratio (HLA-A*0201 (human) [23]) of 0.0008.

VYNGLLPPY [PAP (Prostatic Acid Phosphatase) peptide, position 302, 9 amino acids] showed a relative binding ratio (A*2401) (HLA-A*2401 (human)) of 0.032.

In the case of ALFPPEGVSI [Peptide 1419.6 … (PAP.122)], the IC50 (HLA-A*0206 (human) [31]) is reported as 2640 nM, the IC50 (HLA-A*0201 (human) [32]) is reported as 278 nM and the IC50 (HLA-A*0203 (human) [36]) is reported as 133 nM.

For VTKFMLCAGR [PSA 188 10-mer peptide …], the relative binding ratio (IC50 of standard peptide / IC50 of test peptide) (HLA-A*0301 (human)) was 0.0003.

LTQLGMEQHY [PAP peptide, position 70, 10 amino acids] gave a relative binding ratio (IC50 of standard peptide / IC50 of test peptide) (HLA-A*0101 (human)) of 0.62.
